Data: patent US20220332804A1 (CSL INNOVATION, published 2022)
Residue numbers refer to the chain shown, from its start.

Key:
Experiment in all cases: SPR, KD relative to WT C2;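 further: biacore SPR at 37 °C, anti-C2 mAbs captured on anti-human IgG chips with alanine or serine point mutants of C2 as analyte, KD from 1:1 fit compared with wild-type C2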
human C2 N325A = target: T1, human C2 N325A (human, UniProt P06681 21-752)
T1 sequence: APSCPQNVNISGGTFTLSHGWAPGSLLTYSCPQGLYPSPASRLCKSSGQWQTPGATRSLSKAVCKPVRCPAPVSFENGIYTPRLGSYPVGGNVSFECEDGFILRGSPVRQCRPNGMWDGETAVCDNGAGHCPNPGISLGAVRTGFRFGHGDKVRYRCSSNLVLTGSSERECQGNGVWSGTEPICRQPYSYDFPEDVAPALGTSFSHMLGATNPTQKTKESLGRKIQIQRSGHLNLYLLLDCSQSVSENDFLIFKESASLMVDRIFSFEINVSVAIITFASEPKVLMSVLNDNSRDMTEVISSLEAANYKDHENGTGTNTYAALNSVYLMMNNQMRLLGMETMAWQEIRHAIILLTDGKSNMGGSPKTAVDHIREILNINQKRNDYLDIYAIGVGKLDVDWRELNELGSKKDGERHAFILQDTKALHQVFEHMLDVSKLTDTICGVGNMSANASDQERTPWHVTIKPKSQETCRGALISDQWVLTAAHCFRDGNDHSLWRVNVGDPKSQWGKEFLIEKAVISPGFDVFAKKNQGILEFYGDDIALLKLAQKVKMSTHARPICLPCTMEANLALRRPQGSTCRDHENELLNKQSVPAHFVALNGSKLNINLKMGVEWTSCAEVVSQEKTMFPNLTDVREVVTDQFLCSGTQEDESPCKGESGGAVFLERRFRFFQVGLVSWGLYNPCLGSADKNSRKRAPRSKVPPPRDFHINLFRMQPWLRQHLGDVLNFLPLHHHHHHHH

human C2 L279A = target: T2, human C2 L279A (human, UniProt P06681 21-752)
T2 sequence: T1 sequence with L259A, A305N

human C2 V418A = target: T3, human C2 V418A (human, UniProt P06681 21-752)
T3 sequence: T1 sequence with A305N, V398A

human C2 E476A = target: T4, human C2 E476A (human, UniProt P06681 21-752)
T4 sequence: T1 sequence with A305N, E456A

B1: RF16-242 (antibody, human IgG4 S228P, lambda, V domains shown)
VH: EVQLLQSGAEVKKPGESLKISCKGSGYSFTSYWIGWVRQMPGKGLEWMGIIYPGDSDTRYSPSFQGQVTISADKSISTAYLQWSSLKASDTAMYYCARRGHYGDYFDYWGQGTLVTVSS
VL: SYELTQPPSVSVSPGQTARITCSGDALPKKYAYWYHQKSGQAPVLVIYEDRRRPSEIPERFSGSSSGTMATLTITGAQVEDEGVYFCYSRDRAGNQRVFGGGTQLTVLG
notes: pH-dependent anti-C2 antibody from a phage display library
Question: What does the source list for B1?
Answer: Fold diff (human C2 N325A): 6 fold; Fold diff (human C2 L279A): 7 fold; Fold diff (human C2 V418A): 1 fold; Fold diff (human C2 E476A): 2 fold
